Test results: PMC8983666, “Structural and biochemical characterisation of the Providencia stuartii arginine decarboxylase shows distinct polymerisation and regulation” (Communications Biology, 2022)

Key:
N=C(N)NCCC[C@H](N)C(=O)O = assay: purified protein; conditions: pH 5 (100 mM acetic acid-sodium acetate), 100 mM NaCl, 0.1 mM PLP, 10% glycerol, 20 °C, 10 nM Adc, decarboxylation to agmatine, parentheses = 2.5%-97.5% confidence interval
[1] = biological target: Providencia stuartii arginine decarboxylase Adc (Providencia stuartii); assay: mass photometry; Refeyn OneMP; 30 nM Adc at pH 5.0 and 20 nM Adc at pH 6.5; only the decamer and species below it analysed
[2] = biological target: Providencia stuartii arginine decarboxylase Adc (Providencia stuartii); assay: cryo-EM structure; isolated Adc decamer, about 0.25 mg/mL, 25 mM MES, 150 mM NaCl, 1 mM DTT, 0.1 mM PLP, pH 6.5; D5 symmetry

stoichiometry N [1] | stoichiometry N [2] | Substance | Km (N=C(N)NCCC[C@H](N)C(=O)O) | kcat (N=C(N)NCCC[C@H](N)C(=O)O)
– | – | Providencia stuartii arginine decarboxylase (Adc) (Providencia stuartii) | 0.331 (0.28, 0.38) mM | 102 (97, 108) s^-1
10 | 10 | Providencia stuartii arginine decarboxylase Adc (enzyme) | – | –
